Drawing on paper PMC9714913, this text covers stoichiometry N for one substance.

The target of the test is AMC009 SOSIP gp120-gp41 protomer (HIV-1 (clade B, donor H18877)). In words: cryo-EM structure; AMC009 SOSIPv5.2 trimer with 10-fold molar excess of ACS114 Fab for 12 hours at RT, then 6-fold molar excess of ACS122 Fab for 15 minutes; complex purified by SEC in TBS; ~4.0 Å. On the technique in general: SEC sorts molecules by how far they enter the pores of the column.

For orientation: stoichiometry N means the number of molecules, sites or subunits per partner or assembly. For the substance “AMC009 SOSIP gp120-gp41 protomer (complex)”, the stoichiometry N was found to be 3.
